1 protein from paper PMC7118173 (Nature Communications, 2020) can be followed below.

This data set concerns the molecule itself. The experiment in a line: negative stain electron microscopy; MtbSepFΔML 50 µM in 50 mM HEPES pH 7.4, 300 mM KCl, 10 mM MgCl2.

B1: M. tuberculosis SepFΔML (domain or fragment)
chain: EDGHPLSKITTLRPKDYSEARTIGERFRDGSPVIMDLVSMDNADAKRLVDFAAGLAFALRGSFDKVATKVFLLSPADVDVSPEERRRIAETGFYAYQ
notes: also called MtbSepFΔML
As to B1, the binding result is listed as “binds”.
